Positions count from the first letter of the chain named. Like-named read-outs stand apart in the source and are kept apart here.
T1: MRPP3 (Δ95) (human, UniProt O15091 96-583, del1-95)
T1 sequence: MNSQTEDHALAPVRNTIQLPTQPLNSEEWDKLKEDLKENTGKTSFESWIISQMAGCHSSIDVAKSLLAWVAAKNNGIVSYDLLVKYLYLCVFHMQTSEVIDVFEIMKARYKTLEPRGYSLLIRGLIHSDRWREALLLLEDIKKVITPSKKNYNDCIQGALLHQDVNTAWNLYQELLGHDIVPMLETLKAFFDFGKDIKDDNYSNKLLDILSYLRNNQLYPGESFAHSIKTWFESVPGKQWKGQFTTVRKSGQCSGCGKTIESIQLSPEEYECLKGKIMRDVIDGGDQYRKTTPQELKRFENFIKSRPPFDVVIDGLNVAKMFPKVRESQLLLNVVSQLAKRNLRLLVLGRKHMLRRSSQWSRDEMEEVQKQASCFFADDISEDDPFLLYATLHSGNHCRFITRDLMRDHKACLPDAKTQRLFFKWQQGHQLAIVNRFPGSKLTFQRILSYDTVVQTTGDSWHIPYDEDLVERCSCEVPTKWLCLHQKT

T2: MRPP1 (Δ39);MRPP2;MRPP3 (Δ95) (human;human;human, UniProt Q7L0Y3;Q99714;O15091 40-403;1-261;96-583, del1-39||del1-95)
T2 sequence 1: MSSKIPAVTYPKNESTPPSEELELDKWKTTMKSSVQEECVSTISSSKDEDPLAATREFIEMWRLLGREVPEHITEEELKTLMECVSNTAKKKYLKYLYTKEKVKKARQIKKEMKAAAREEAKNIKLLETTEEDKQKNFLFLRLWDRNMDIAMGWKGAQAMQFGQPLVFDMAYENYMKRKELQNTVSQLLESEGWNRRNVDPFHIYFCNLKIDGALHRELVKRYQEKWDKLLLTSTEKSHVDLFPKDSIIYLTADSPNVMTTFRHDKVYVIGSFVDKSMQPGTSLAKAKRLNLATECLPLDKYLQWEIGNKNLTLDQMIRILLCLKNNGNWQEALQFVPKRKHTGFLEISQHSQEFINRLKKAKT
T2 sequence 2: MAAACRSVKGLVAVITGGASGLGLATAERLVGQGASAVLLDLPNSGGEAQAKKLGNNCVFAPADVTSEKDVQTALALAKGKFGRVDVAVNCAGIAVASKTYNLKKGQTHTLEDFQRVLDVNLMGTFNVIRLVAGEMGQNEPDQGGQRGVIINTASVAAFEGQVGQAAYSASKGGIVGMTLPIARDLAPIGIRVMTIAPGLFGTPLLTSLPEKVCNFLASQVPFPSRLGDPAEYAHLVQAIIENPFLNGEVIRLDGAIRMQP
T2 sequence 3: T1 sequence

T3: MRPP1 (Δ39);MRPP2 (human;human, UniProt Q7L0Y3;Q99714 40-403;1-261, del1-39|)
T3 sequence 1: T2 sequence 1
T3 sequence 2: T2 sequence 2

B1: (mt)pre-tRNAVal7:0 (structured_RNA)
RNA: GACGAACCAGAGUGUAGCUUAACACAAAGCACCCAACUUACACUUAGGAGAUUUCAACUUAACUUGACCGCUCUGA
B2: (mt)pre-tRNAVal/C9 (structured_RNA)
RNA: B1 RNA with A16C

Key:
Assay in all cases: fluorescence anisotropy
MRPP3 (Δ95) = target: T1, MRPP3 (Δ95)
[1] = target: T2, MRPP1 (Δ39);MRPP2;MRPP3 (Δ95)
MRPP1 (Δ39);MRPP2 [2] = target: T3, MRPP1 (Δ39);MRPP2
[3] = target: T2, MRPP1 (Δ39);MRPP2;MRPP3 (Δ95); remark: listed apart in the source
MRPP1 (Δ39);MRPP2 [4] = target: T3, MRPP1 (Δ39);MRPP2; remark: listed apart in the source

Binder | Kd (MRPP3 (Δ95)) [µM] | binding result [1] | binding result (MRPP1 (Δ39);MRPP2 [2]) | binding result [3] | binding result (MRPP1 (Δ39);MRPP2 [4])
B1 | 21.7 ± 2.6 | binds | binds |  | 
B2 |  |  |  | binds | binds

Reference: paper doi:10.1101/452920
